Biological target: T1, ASM protein present in the blood plasma of APP/PS1 mice (mouse, UniProt Q04519 45-626, limits assumed)
T1 sequence: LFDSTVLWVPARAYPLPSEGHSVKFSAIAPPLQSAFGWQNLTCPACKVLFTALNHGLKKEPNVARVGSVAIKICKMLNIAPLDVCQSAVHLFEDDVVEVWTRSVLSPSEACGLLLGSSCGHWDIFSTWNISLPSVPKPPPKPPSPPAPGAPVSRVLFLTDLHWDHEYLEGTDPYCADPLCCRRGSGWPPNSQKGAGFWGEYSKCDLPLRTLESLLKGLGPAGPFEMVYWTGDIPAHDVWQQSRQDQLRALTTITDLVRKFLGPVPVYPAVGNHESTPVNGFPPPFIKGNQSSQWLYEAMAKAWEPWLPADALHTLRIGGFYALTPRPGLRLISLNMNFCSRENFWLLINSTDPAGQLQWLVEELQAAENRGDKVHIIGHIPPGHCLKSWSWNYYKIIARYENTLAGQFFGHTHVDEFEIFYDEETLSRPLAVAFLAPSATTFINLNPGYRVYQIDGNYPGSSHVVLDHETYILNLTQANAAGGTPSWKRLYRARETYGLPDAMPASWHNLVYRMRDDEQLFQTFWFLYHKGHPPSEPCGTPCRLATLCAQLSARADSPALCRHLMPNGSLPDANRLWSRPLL
Assay: cell-based or functional assay

B1: antibody #9104 (antibody, mouse IgG1, V domains shown)
VH: EVQLLESGGGLVQPGGSLRLSCAASGFTFSNYYMSWVRQAPGKGLEWVSGIYYGSGNIYYADSVKGRFTISRDNSKNTLYLQMNSLRAEDTAVYYCARDTPGFDYWGQGTLVTVSS
VL: QSVLTQPPSASGTPGQRVTISCTGSSSNIGNNAVNWYQQLPGTAPKLLIYYDSHRPSGVPDRFSGSKSGTSASLAISGLRSEDEADYYCGAWDYSLSAYVFGGGTKLTVLG
- activity of the ASM protein in blood plasma of APP/PS1 mice after administration of 50 mg/kg antibody (UPLC), relative to the negative control group: ~64%
